This data set deals with the molecule itself.

B1: CBF3 p110 (p110^NDC10) (natural protein)
chain: MRSSILFLLKLMKIMDVQQQQEAMSSEDRFQELVDSLKPRTAHQYKTYYTKYIQWCQLNQIIPTPEDNSVNSVPYKDLPISAELIHWFLLDTLITDDKPGEKREETEDLDEEEENSFKIATLKKIIGSLNFLSKLCKVHENPNANIDTKYLESVTKLHTHWIDSQKAITTNETNNTNTQVLCPPLLKVSLNLWNPETNHLSEKFFKTCSEKLRFLVDFQLRSYLNLSFEERSKIRFGSLKLGKRDRDAIIYHKVTHSAEKKDTPGHHQLLALLPQDCPFICPQTTLAAYLYLRFYGIPSVSKGDGFPNLNADENGSLLQDIPILRGKSLTTYPREETFSNYYTTVFRYCHLPYKRREYFNKCNLVYPTWDEDTFRTFFNEENHGNWLEQPEAFAFPDKIPFDFKKIMNFKSPYTSYSTNAKKDPFPPPKDLLVQIFPEIDEYKRHDYEGLSQNSRDFLDLMEVLRERFLSNLPWIYKFFPNHDIFQDPIFGNSDFQSYFNDKTIHSKGSPILSFDILPGFNKIYKNKTNFYSLLIERPSQLTFASSHNPDTHPTQKQESEGPLQMSQLDTTQLNELLKQQSFEYVQFQTLSNFQILLSVFNKIFEKLEMKKSSRGYILHQLNLFKITLDERIKKSKIDDADKFIRDNQPIKKEENIVNEDGPNTSRRTKRPKQIRLLSIADSSDESSTEDSNVFKKDGESIEDGAYGENEDENDSEMQEQLKSMINELINSKISTFLRDQMDQFELKINALLDKILEEKVTRIIEQKLGSHTGKFSTLKRPQLYMTEEHNVGFDMEVPKKLRTSGKYAETVKDNDDHQAMSTTASPSPEQDQEAKSYTDEQEFMLDKSIDSIEGIILEWFTPNAKYANQCVHSMNKSGNKSWRANCEALYKERKSIVEFYIYLVNHESLDRYKAVDICEKLRDQNEGSFSRLAKFLRKWRHDHQNSFDGLLVYLSN
Take B1: the “stoichiometry N” value came out at 2.

As a reminder, the stoichiometry N is a count of units in the complex or per binding partner.

(Values after publication PMC2132615 (The Journal of Cell Biology, 1997).)
